Reference: patent publication US20240261333A1, “NOVEL TARGETS FOR ENHANCING ANTI-TUMOR IMMUNITY” (THE BROAD INSTITUTE, INC., priority 2021, published 2024)

Experiments:
Experiment in all cases: co-IP with IgG control, lysate of C-FLAG B3GNT2 cells, mass spectrometry
ARPC1B (human) = ARPC1B (human) (UniProt O15143)
COPA (human) = COPA (human) (UniProt P53621)
CPSF7 (human) = CPSF7 (human) (UniProt Q8N684)
CPT1A (human) = CPT1A (human) (UniProt P50416)
DDX17 (human) = DDX17 (human) (UniProt Q92841)
DDX3X (human) = DDX3X (human) (UniProt O00571)
HBB (human) = HBB (human) (UniProt P68871)
Sequence of HBB (human) (P68871 2-147 limits assumed): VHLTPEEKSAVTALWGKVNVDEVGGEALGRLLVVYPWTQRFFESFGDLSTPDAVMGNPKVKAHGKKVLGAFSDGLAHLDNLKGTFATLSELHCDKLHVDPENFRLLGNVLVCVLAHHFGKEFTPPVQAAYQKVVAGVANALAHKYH

HNRNPH1 (human) = HNRNPH1 (human) (UniProt P31943)
JUP (human) = JUP (human) (UniProt P14923)
Sequence of JUP (human) (P14923 whole entry): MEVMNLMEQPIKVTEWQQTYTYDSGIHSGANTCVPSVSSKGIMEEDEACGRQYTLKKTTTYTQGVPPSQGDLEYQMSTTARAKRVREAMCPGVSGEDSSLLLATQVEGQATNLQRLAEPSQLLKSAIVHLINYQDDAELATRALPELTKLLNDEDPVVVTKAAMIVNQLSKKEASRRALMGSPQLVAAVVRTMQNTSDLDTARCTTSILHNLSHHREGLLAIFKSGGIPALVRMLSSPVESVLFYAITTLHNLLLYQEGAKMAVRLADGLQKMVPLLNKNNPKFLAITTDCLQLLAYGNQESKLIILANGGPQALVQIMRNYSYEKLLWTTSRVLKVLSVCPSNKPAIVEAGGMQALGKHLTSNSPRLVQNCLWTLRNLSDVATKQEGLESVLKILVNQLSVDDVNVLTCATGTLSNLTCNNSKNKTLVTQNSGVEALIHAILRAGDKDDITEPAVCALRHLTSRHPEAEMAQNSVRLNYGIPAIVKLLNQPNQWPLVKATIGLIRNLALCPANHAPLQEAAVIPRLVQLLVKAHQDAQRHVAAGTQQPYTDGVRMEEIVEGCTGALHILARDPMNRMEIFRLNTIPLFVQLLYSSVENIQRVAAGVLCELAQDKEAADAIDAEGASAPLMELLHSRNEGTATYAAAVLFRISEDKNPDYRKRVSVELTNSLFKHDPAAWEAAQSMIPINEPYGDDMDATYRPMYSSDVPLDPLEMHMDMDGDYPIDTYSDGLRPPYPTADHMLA

LAMC1 (human) = LAMC1 (human) (UniProt P11047)
LUC7L3 (human) = LUC7L3 (human) (UniProt O95232)
MMP14 (human) = MMP14 (human) (UniProt P50281)
NAP1L1 (human) = NAP1L1 (human) (UniProt P55209)
[1] = molecular target: P0AA25.2 [thioredoxin: P0AA25]
Sequence of P0AA25.2 [thioredoxin: P0AA25] (P0AA25 2-109): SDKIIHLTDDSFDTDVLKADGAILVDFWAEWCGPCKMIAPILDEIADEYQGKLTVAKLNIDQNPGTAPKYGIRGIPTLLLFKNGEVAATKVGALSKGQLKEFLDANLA

P4HA2 (human) = P4HA2 (human) (UniProt O15460)
PLOD1 (human) = PLOD1 (human) (UniProt Q02809)
PRRC2C (human) = PRRC2C (human) (UniProt Q9Y520)
PSMA3 (human) = PSMA3 (human) (UniProt P25788)
Sequence of PSMA3 (human) (P25788 2-255 limits assumed): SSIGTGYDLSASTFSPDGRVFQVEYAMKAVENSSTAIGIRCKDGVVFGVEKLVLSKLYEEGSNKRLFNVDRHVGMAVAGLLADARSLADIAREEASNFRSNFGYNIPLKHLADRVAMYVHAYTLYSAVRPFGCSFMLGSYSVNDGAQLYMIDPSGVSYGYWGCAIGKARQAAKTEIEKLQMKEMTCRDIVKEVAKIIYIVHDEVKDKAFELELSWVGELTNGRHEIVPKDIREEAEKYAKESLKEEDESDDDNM

PSMB5 (human) = PSMB5 (human) (UniProt P28074)
PUF60 (human) = PUF60 (human) (UniProt Q9UHX1)
PURA (human) = PURA (human) (UniProt Q00577)
RBM14 (human) = RBM14 (human) (UniProt Q96PK6)
RPL17 (human) = RPL17 (human) (UniProt P18621)
RPL6 (human) = RPL6 (human) (UniProt Q02878)
RPS20 (human) = RPS20 (human) (UniProt P60866)
RPS24 (human) = RPS24 (human) (UniProt P62847)
Sequence of RPS24 (human) (P62847 other isoform, or with tags, fused parts or gaps limits assumed): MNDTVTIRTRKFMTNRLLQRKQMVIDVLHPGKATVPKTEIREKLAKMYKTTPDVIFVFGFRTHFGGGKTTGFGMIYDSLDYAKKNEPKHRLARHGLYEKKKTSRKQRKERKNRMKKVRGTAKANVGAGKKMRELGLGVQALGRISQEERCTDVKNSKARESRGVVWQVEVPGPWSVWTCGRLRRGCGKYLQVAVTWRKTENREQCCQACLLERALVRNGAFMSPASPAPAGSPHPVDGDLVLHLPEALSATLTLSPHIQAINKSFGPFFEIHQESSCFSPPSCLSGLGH

RUVBL2 (human) = RUVBL2 (human) (UniProt Q9Y230)
SBSN (human) = SBSN (human) (UniProt Q6UWP8)
Sequence of SBSN (human) (Q6UWP8 26-590 limits assumed): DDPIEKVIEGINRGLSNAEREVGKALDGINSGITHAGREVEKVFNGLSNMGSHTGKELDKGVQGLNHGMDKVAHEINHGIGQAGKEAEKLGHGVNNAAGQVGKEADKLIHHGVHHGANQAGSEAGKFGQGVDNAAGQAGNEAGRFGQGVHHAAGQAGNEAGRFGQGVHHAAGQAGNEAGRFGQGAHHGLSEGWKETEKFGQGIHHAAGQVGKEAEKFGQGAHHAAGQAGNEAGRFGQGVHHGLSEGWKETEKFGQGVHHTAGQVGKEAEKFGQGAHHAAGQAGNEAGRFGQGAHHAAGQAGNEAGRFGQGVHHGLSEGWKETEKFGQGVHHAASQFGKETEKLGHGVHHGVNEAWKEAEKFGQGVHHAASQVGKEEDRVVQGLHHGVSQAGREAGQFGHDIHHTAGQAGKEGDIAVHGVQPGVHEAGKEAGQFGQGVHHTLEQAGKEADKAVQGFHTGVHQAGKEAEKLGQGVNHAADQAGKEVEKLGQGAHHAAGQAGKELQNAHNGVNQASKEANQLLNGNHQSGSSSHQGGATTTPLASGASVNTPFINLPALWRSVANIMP

SPARC (human) = SPARC (human) (UniProt P09486)
SRSF6 (human) = SRSF6 (human) (UniProt Q13247)
TGM1 (human) = TGM1 (human) (UniProt P22735)
TM9SF1 (human) = TM9SF1 (human) (UniProt O15321)
TPM2 (human) = TPM2 (human) (UniProt P07951)
TTC13 (human) = TTC13 (human) (UniProt Q8NBP0)
Sequence of TTC13 (human) (Q8NBP0 other isoform, or with tags, fused parts or gaps limits assumed): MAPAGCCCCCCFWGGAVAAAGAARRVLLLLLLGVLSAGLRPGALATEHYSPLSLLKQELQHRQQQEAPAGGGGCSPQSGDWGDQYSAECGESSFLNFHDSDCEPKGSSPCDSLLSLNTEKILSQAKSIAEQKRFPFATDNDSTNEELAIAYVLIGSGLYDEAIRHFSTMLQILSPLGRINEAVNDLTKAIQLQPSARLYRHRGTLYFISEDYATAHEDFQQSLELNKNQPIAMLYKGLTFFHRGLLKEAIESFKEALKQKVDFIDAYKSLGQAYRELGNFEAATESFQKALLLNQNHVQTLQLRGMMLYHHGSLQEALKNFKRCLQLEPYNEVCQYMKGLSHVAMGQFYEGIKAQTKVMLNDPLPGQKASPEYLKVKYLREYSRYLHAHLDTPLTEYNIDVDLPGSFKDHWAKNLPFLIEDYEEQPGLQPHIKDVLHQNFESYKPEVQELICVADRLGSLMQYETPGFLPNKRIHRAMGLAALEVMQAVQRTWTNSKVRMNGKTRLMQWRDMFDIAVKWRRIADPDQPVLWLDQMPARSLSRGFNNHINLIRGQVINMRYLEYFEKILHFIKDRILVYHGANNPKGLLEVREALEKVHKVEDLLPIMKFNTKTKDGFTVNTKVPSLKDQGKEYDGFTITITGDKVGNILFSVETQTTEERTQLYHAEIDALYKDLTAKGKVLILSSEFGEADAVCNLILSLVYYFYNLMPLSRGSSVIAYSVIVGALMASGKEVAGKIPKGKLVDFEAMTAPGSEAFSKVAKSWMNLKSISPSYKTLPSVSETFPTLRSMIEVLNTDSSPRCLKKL

UniProt P01837.1 = molecular target: UniProt P01837.1
XPO1 (human) = XPO1 (human) (UniProt O14980)
Sequence of XPO1 (human) (O14980 whole entry): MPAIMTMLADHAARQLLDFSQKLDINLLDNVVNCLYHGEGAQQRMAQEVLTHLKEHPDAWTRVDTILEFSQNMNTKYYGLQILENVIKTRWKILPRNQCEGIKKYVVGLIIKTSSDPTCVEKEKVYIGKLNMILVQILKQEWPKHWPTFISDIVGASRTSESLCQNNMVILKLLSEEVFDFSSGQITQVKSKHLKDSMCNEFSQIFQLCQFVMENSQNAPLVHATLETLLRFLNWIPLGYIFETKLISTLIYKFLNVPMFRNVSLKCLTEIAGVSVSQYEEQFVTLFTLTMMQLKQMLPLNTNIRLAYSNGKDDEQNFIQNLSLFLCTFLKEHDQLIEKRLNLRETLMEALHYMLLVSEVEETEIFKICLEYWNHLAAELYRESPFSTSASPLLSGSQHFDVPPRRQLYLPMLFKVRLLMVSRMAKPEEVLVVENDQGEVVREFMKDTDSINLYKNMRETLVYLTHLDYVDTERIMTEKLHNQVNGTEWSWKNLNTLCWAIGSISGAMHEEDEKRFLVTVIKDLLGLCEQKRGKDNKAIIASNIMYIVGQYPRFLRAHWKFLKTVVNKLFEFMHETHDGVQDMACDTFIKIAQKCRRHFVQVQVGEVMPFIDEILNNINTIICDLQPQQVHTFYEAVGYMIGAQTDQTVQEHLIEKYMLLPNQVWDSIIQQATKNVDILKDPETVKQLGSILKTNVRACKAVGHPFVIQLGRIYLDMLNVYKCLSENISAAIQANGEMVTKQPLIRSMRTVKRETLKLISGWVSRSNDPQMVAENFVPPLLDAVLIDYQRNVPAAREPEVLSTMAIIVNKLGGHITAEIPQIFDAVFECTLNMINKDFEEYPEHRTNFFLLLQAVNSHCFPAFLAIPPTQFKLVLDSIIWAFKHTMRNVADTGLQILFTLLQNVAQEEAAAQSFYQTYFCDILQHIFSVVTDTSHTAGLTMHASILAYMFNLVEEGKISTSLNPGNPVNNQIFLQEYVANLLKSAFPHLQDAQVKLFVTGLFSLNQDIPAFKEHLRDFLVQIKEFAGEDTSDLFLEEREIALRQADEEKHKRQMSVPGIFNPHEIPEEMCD

XPOT (human) = XPOT (human) (UniProt O43592)
Sequence of XPOT (human) (O43592 whole entry): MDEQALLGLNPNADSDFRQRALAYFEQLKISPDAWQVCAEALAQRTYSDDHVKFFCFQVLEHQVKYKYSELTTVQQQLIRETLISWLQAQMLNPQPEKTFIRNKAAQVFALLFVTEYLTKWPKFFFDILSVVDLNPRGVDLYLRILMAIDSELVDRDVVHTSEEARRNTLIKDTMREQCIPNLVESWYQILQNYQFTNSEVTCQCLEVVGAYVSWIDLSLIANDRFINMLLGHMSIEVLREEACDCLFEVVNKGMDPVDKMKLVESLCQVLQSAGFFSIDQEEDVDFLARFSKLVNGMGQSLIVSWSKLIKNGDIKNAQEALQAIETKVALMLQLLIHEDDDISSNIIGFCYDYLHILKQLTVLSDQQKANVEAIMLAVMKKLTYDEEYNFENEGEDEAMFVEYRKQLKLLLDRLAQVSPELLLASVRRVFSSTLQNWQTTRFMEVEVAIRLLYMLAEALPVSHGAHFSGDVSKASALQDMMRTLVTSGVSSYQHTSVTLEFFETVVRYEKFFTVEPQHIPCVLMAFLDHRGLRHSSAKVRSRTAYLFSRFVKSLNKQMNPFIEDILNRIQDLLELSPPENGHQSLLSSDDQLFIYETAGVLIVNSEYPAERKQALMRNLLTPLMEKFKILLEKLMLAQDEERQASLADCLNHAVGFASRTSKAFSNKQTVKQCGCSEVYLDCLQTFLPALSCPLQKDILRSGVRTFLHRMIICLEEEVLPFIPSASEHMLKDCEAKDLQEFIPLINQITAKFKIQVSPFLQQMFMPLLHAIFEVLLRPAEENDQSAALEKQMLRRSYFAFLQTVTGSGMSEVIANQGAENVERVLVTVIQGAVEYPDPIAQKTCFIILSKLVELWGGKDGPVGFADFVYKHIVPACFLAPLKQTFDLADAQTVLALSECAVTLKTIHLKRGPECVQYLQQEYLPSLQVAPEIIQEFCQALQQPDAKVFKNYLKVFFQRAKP

IgG control (Millipore Sigma 12-371) (antibody)
co-IP/MS count, C-term IgG (ARPC1B (human)): 2 | co-IP/MS count, C-term IgG (COPA (human)): 0 | co-IP/MS count, C-term IgG (CPSF7 (human)): 9 | co-IP/MS count, C-term IgG (CPT1A (human)): 0 | co-IP/MS count, C-term IgG (DDX17 (human)): 22 | co-IP/MS count, C-term IgG (DDX3X (human)): 15 | co-IP/MS count, C-term IgG (HBB (human)): 0 | co-IP/MS count, C-term IgG (HNRNPH1 (human)): 11 | co-IP/MS count, C-term IgG (JUP (human)): 36 | co-IP/MS count, C-term IgG (LAMC1 (human)): 0 | co-IP/MS count, C-term IgG (LUC7L3 (human)): 3 | co-IP/MS count, C-term IgG (MMP14 (human)): 0 | co-IP/MS count, C-term IgG (NAP1L1 (human)): 0 | co-IP/MS count, C-term IgG [1]: 8 | co-IP/MS count, C-term IgG (P4HA2 (human)): 0 | co-IP/MS count, C-term IgG (PLOD1 (human)): 0 | co-IP/MS count, C-term IgG (PRRC2C (human)): 6 | co-IP/MS count, C-term IgG (PSMA3 (human)): 0 | co-IP/MS count, C-term IgG (PSMB5 (human)): 0 | co-IP/MS count, C-term IgG (PUF60 (human)): 5 | co-IP/MS count, C-term IgG (PURA (human)): 0 | co-IP/MS count, C-term IgG (RBM14 (human)): 0 | co-IP/MS count, C-term IgG (RPL17 (human)): 2 | co-IP/MS count, C-term IgG (RPL6 (human)): 4 | co-IP/MS count, C-term IgG (RPS20 (human)): 5 | co-IP/MS count, C-term IgG (RPS24 (human)): 2 | co-IP/MS count, C-term IgG (RUVBL2 (human)): 0 | co-IP/MS count, C-term IgG (SBSN (human)): 15 | co-IP/MS count, C-term IgG (SPARC (human)): 0 | co-IP/MS count, C-term IgG (SRSF6 (human)): 5 | co-IP/MS count, C-term IgG (TGM1 (human)): 10 | co-IP/MS count, C-term IgG (TM9SF1 (human)): 0 | co-IP/MS count, C-term IgG (TPM2 (human)): 0 | co-IP/MS count, C-term IgG (TTC13 (human)): 0 | co-IP/MS count, C-term IgG (UniProt P01837.1): 108 | co-IP/MS count, C-term IgG (XPO1 (human)): 0 | co-IP/MS count, C-term IgG (XPOT (human)): 0
